From PMC2722759 (Nature cell biology, 2008)
Where two headings read alike, the source gives them in different places. Each block holds one molecule with its values, some of them ahead of it.

How the values were obtained:
Experiment in all cases: SPR
[1] = biological target: Fc-tagged sFRP2 Fzl domain (mouse)
FLAG-tagged BMP1 [2] = biological target: T1, FLAG-tagged BMP1 (human, UniProt P13497-2 23-730)
T1 sequence (looked up): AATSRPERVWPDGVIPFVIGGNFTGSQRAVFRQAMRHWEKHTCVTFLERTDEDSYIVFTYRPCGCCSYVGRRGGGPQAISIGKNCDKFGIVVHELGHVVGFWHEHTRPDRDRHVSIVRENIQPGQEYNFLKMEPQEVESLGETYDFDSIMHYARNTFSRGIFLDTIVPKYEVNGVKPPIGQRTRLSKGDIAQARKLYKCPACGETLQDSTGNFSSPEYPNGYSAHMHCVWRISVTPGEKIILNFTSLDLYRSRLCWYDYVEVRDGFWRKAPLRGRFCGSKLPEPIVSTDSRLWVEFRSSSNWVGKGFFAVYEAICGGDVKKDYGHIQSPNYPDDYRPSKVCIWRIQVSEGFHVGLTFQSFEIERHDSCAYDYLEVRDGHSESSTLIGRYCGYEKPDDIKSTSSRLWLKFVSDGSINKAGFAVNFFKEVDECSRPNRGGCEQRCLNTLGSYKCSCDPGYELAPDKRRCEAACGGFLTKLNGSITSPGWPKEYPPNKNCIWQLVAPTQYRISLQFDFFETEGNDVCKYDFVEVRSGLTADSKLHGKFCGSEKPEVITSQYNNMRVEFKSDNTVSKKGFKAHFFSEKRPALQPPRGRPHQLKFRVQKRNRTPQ

FLAG-tagged BMP1 [3] = biological target: T1, FLAG-tagged BMP1; remark: listed apart in the source

Kd [1]: 8.68 nM
Molecule: FLAG-tagged BMP1 (from UniProt P13497-2 23-730) (enzyme)

Kd (FLAG-tagged BMP1 [2]): 7.13 nM
B1: His-tagged sFRP2 (natural protein, mouse, UniProt P97299 25-295, looked up)
chain: LFLFGQPDFSYKRSNCKPIPANLQLCHGIEYQNMRLPNLLGHETMKEVLEQAGAWIPLVMKQCHPDTKKFLCSLFAPVCLDDLDETIQPCHSLCVQVKDRCAPVMSAFGFPWPDMLECDRFPQDNDLCIPLASSDHLLPATEEAPKVCEACKTKNEDDNDIMETLCKNDFALKIKVKEITYINRDTKIILETKSKTIYKLNGVSERDLKKSVLWLKDSLQCTCEEMNDINAPYLVMGQKQGGELVITSVKRWQKGQREFKRISRSIRKLQC

Kd (FLAG-tagged BMP1 [3]): ~6.01 nM
B2: full-length sFRP2-Fc (Fc fusion, mouse, UniProt P97299 25-295, looked up)
chain: B1 chain
